From publication PMC10763564, “BrainBike peptidomimetic enables efficient transport of proteins across brain endothelium†” (RSC Chemical Biology, 2023)
Starred links: 1 amine or outer side, 2 acyl side, 3 side chain; linkers in the order of their positions; H or OH if unused. Positions of bridges follow the written chain, without caps; N, C: chain ends. No end group written: not given here. TBMB = c1c(C[*:1])cc(C[*:3])cc1C[*:2]

Columns and labels:
[1] = target: T1, TfR1 fused to a green fluorescent protein, on transfected HeLa cells (TfR1+++) (UniProt P02786 1-760); test: flow cytometry on cells; sCy5-labelled peptide on HeLa cells transfected with GFP-TfR1 (TfR1+++), cells with higher levels of the receptor analysed; settings: one partner purified
T1 construct: Transferrin Receptor 1 (TfR1) encoded by a plasmid as a fusion with GFP; The transfected HeLa cells carry the endogenous TfR1 as well; also called GFP-TfR1; source: HeLa, transfected, on cells

[2] = target: T2, Transferrin Receptor 1 on HeLa cells (TfR1+) (human (endogenous in HeLa), UniProt P02786 1-760); test: flow cytometry on cells; sCy5-labelled peptides on HeLa cells (TfR1+, endogenous receptor); settings: one partner purified
T2 construct: Transferrin Receptor 1 (TfR1), endogenous on HeLa cells; source: endogenous, on HeLa cells
T2 sequence (P02786 whole entry): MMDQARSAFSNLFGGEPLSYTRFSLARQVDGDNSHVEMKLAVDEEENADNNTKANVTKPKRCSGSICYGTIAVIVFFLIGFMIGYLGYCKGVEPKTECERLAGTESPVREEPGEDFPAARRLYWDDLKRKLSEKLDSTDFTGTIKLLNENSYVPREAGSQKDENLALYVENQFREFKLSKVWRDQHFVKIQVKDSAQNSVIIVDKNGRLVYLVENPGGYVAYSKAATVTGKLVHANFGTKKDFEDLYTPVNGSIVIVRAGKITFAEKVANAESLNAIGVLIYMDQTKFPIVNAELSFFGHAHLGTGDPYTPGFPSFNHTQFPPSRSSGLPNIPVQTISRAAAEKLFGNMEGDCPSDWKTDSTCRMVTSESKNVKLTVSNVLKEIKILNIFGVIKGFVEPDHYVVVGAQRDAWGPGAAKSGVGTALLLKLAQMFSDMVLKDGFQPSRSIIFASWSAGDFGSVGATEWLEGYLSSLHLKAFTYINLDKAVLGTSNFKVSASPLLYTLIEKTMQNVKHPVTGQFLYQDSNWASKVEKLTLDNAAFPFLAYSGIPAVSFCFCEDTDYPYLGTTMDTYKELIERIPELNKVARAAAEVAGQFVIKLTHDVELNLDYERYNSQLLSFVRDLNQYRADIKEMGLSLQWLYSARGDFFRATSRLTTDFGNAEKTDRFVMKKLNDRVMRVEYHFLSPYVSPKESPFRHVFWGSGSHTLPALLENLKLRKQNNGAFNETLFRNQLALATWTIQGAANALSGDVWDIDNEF

T1 sequence (P02786 whole entry, the tested form may be a part): as the sequence (P02786 whole entry) above

fold binding against the same cells without overexpressing the receptor [1]: ~40 fold
Kd [2]: ~40 nM
fold cell association against the parent peptide Y1 [2]: 7 fold
B1: BrainBike-4 labelled with sulfo-Cyanine5 (peptide)
chain: {sulfo‑Cyanine5}-GSGCVHWDCRQWC
modifications: linker 4-9-13 via TBMB
